1 molecule from publication doi:10.1101/2025.11.04.686334 (bioRxiv, 2025) can be followed below.

The assay addresses HA head domain of A/Hong Kong/1/1968 (H3N2) (Influenza A virus A/Hong Kong/1/1968 …, strain). In words: ELISA. The following applies: both partners purified. On the technique in general: ELISA stands for enzyme-linked immunosorbent assay.

B1: FluA-20 mAb (antibody, V domains shown)
VH: QVQLEESGPGLVKPSETLSLTCSVSGVSVTSDIYYWTWIRQPPGKGLEWIGYIFYNGDTNYNPSLKSRVTMSIDTSKNEFSLRLTSVTAADTAVYFCARGTEDLGYCSSGSCPNHWGQGTLVTVSS
VL: DIVMTQSPSSLSASIGDRVTITCRPSQNIRSFLNWFQHKPGKAPKLLIYAASNLQSGVPSRFSGSGSGTEFTLTIRSLQPEDFATYYCQQSYNTPPTFGQGTKVEIK
In the case of B1, the binding result is listed as “binds”.
